The results in this text go back to PMC4005638, “Interactions between the non-seed region of siRNA and RNA-binding RLC/RISC proteins, Ago and TRBP, in mammalian cells”.

The target in data set [1] is T1, GST-PAZ (human AGO1 PAZ domain) (Homo sapiens, UniProt Q9UL18 222-376). As to the kind of experiment: EMSA; TRBP EMSA: 20 mM Tris pH 7.5, 150 mM NaCl, 2 mM EDTA, 1 mM 2-ME, 1 mM DTT, 50 ng/ml salmon sperm DNA, RNasin, 0.5 nM siRNA, 30 min; PAZ EMSA: 1 pmol/ul PAZ, 5 fmol/ul siRNA, 20 mM Tris-HCl pH 7.5, 100 mM NaCl, 2 mM EDTA, 1 mM DTT, 5% glycerol, 50 ng/ul poly(dA-dT), RNasin, 30 min, room temperature. The settings on record: protein: recombinant; tags: N-terminal GST, C-terminal 6xHis; label: 32P guide strand; 19 bp, 2-nt 3' overhangs.

The target of data set [2] is T2, TRBP (Homo sapiens, UniProt Q15633 1-366).
T2 sequence: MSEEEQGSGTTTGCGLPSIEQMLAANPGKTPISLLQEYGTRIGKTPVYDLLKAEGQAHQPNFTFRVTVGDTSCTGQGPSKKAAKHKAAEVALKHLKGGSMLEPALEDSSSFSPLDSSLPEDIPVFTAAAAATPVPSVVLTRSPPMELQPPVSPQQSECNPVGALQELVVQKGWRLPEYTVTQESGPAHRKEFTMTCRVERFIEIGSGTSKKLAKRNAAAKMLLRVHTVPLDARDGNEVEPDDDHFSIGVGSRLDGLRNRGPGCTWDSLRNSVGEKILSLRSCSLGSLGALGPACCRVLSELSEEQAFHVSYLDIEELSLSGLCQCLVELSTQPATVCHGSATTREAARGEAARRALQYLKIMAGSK
The experiment in a line: EMSA; virtually no binding; TRBP EMSA: 20 mM Tris pH 7.5, 150 mM NaCl, 2 mM EDTA, 1 mM 2-ME, 1 mM DTT, 50 ng/ml salmon sperm DNA, RNasin, 0.5 nM siRNA, 30 min; PAZ EMSA: 1 pmol/ul PAZ, 5 fmol/ul siRNA, 20 mM Tris-HCl pH 7.5, 100 mM NaCl, 2 mM EDTA, 1 mM DTT, 5% glycerol, 50 ng/ul poly(dA-dT), RNasin, 30 min, room temperature. The settings on record: protein: recombinant; tags: N-terminal 6xHis; label: 32P guide strand; 19 bp, 2-nt 3' overhangs. A general note: Mobility shift assays separate free from complexed probe on a gel.

In data set [3] the target is T1, GST-PAZ (human AGO1 PAZ domain). The experiment in a line: EMSA; strong; TRBP EMSA: 20 mM Tris pH 7.5, 150 mM NaCl, 2 mM EDTA, 1 mM 2-ME, 1 mM DTT, 50 ng/ml salmon sperm DNA, RNasin, 0.5 nM siRNA, 30 min; PAZ EMSA: 1 pmol/ul PAZ, 5 fmol/ul siRNA, 20 mM Tris-HCl pH 7.5, 100 mM NaCl, 2 mM EDTA, 1 mM DTT, 5% glycerol, 50 ng/ul poly(dA-dT), RNasin, 30 min, room temperature. To be noted: protein: recombinant; tags: N-terminal GST, C-terminal 6xHis; label: 32P guide strand; 19 bp, 2-nt 3' overhangs.

T1 sequence (Q9UL18 222-376): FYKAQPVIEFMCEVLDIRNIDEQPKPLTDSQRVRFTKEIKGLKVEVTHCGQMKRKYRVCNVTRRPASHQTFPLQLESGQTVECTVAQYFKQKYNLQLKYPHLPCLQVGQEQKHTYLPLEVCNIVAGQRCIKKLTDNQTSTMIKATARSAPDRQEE

B1: siLuc-36 siDNA (dsDNA)
DNA 1: TCTTCCAGCGGATAGAATGGC
DNA 2: CATTCTATCCGCTGGAAGATG
modifications: all ribonucleotides replaced by DNA
As to B1, the binding result in data set [1] and in data set [2] was “no binding” in each case.

B2: siLuc2-153 siDNA (dsDNA)
DNA 1: TCGAAGTATTCCGCGTACGTG
DNA 2: CGTACGCGGAATACTTCGATT
modifications: all ribonucleotides replaced by DNA
As to B2, in data set [2], the binding result is recorded as “no binding”.

B3: siLuc-36 TCA-RNA (mixed)
DNA 1: TCTTCCAGCGGATAGAAUGGC
DNA 2: CAUUCTAUCCGCTGGAAGATG
modifications: DNA: seed duplex and subdomain B (guide 1-8, 13-14; passenger 6-7, 12-21)
As for B3, in data set [3], the binding result is reported as “binds”.

B4: siLuc-36 nonmodified (dsRNA)
RNA 1: UCUUCCAGCGGAUAGAAUGGC
RNA 2: CAUUCUAUCCGCUGGAAGAUG
In the case of B4, in data set [1], the binding result is reported as “binds”.
